Experimental findings from the DeepSol protein solubility set are described below.

The nature of the data set: soluble on expression in E. coli; label from the status in PepcDB or PDB records.
On to “MVTAPPTDYFASFTTNDDALVLASVSSDAELELLNVWLRTHRREHPDSKVDVLQLPAADEPAPGDLARLVEELEADENRLVVPVRVFWVPGGLPTRLKVVALMSGRDTYRPPEILQRRILRKDPSRARVVAGEPAKVSELRKQWSETTVGENPRDFAHFVLRRAVLAIERVELRLLGPEYKSPRLVKPEMMASSRFREGLAKIPGATPEKAGEMLDELSTGWSRFSVDLIPSLGRAIFSRGFDPRIDYDRIEIEQMRHALEQHPAVLLFSHRSYLDGVIVPVAMQENRLPPVHTFAGINLSFGIMGPIFRHSGVIFLRRKLDDPLYKYVLRQYVGYLVEKRFNLNWSIEGTRSRTGKMLPPKLGLLAYVADAYLDGRSDDILLQPVSISFDQLHETAEYAEYARGGEKRPEGLSWLYNFVKAQGERNYGKIYVRFPEAVSMRQYLGEPHGPLVEDEAAKRLAMQKMAIEVAWRILRVTPVNATNLVSALLLTARGVALTLEQLHQALQDSLDYLEQKKTPVTNSAMRLRTLEGVRAAVDALSGGHPVTCVDTGREPVWRIAPENELEAAFYRNSLIHAFLETSLVELALAYAARTADAEGDPLQAFWTQVVRLRDLLKFDFYFADSAAFHQNVAEEMSWHADWEQQVRAGRDGIETLMRAKRPLLADAMLRPYFEAYTIVADVLRDAPAEIAEKDLTKLALGVGQQYVAQGRVRNNESVSALLFATARQVAADQGLLEHGPDLMEQRRAFRDELRGILRDLDTVDRYARELFAARERERRTKRDEAVLEHHHHHH”, for which the “soluble on expression in E. coli” value is “soluble”.

With “MVTAREVGRIGLRKLLQRIGIVAESMTPLATDPVEVTQLLDARWYDERLRALADELGRDPDSVRAEAAGYLREMAASLDERAVQAWRGFSRWLMRAYDVLVDEDQITQLRKLDRKATLAFAFSHRSYLDGMLLPEAILANRLSPALTFGGANLNFFPMGAWAKRTGAIFIRRQTKDIPVYRFVLRAYAAQLVQNHVNLTWSIEGGRTRTGKLRPPVFGILRYITDAVDEIDGPEVYLVPTSIVYDQLHEVEAMTTEAYGAVKRPEDLRFLVRLARQQGERLGRAYLDFGEPLPLRKRLQEMRADKSGTGSEIERIALDVEHRINRATPVTPTAVVSLALLGADRSLSISEVLATVRPLASYIAARNWAVAGAADLTNRSTIRWTLHQMVASGVVSVYDAGTEAVWGIGEDQHLVAAFYRNTAIHILVDRAVAELALLAAAETTTNGSVSPATVRDEALSLRDLLKFEFLFSGRAQFEKDLANEVLLIGSVVDTSKPAAAADVWRLLESADVLLAHLVLRPFLDAYHIVADRLAAHEDDSFDEEGFLAECLQVGKQWELQRNIASAESRSMELFKTALRLARHRELVDGADATDIAKRRQQFADEIATATRRVNTIAELARRQLEHHHHHH”, the “soluble on expression in E. coli” value was “not soluble”.

Consider “MVTFKPKVLHFVNATNLNQVDGTGTIVNEWIKAAGGQNALKQKGNMISVTTETLAKSDPDVIIVGSATTAEARAALKKNAVLSKLTAVKKNRVYGNPQGTFPWDRYSAEEALQVLWAAKKLHPDQFQLEHHHHHH”, for which the “soluble on expression in E. coli” value is listed as “not soluble”.

In the case of “MVVPLKRIDKIRWEIPKFDKRMRVPGRVYADEVLLEKMKNDRTLEQATNVAMLPGIYKYSIVMPDGHQGYGFPIGGVAAFDVKEGVISPGGIGYDINCGVRLIRTNLTEKEVRPRIKQLVDTLFKNVPSGVGSQGRIKLHWTQIDDVLVDGAKWAVDNGYGWERDLERLEEGGRMEGADPEAVSQRAKQRGAPQLGSLGSGNHFLEVQVVDKIFDPEVAKAYGLFEGQVVVMVHTGSRGLGHQVASDYLRIMERAIRKYRIPWPDRELVSVPFQSEEGQRYFSAMKAAANFAWANRQMITHWVRESFQEVFKQDPEGDLGMDIVYDVAHNIGKVEEHEVDGKRVKVIVHRKGATRAFPPGHEAVPRLYRDVGQPVLIPGSMGTASYILAGTEGAMKETFGSTCHGAGRVLSRKAATRQYRGDRIRQELLNRGIYVRAASMRVVAEEAPGAYKNVDNVVKVVSEAGIAKLVARMRPIGVAKG”, the “soluble on expression in E. coli” value is on record as “soluble”.

Consider “MVYDDANKKWVPAGGSTGFSRVHIYHHTGNNAFRVVGRKIQDHQVVINCAIPKGLKYNQATQTFHQWRDARQVYGLNFGSKEDASVFASAMMHALEVLNSQDAGEKALFTAGCEV”, for which the “soluble on expression in E. coli” value was “soluble”.

As to “MVYFAYGSNLCLEQMKKRCPEAIPMISVHLDDYKLVYNKYADIIPCEGEKVYGAIYEISLNDLKNLDKYEEYSDLYEKIDLIVQDINGISYEAFAYVMNEKGDKTPDKRYLDIINKGYEDWGIIY”, the “soluble on expression in E. coli” value is given as “not soluble”.

In the case of “MWDQHMHCMFSGDSDADPVLMINSAINKGLDGICFTDHLDYDYKEEPGLFDLDIAAYEKRIKRLAIVLKEKGCPINIHWGIEIGLQPHITDKNNEVAKKYPFDLVIGSSHVVNGIDPYYPAFYKGKTEHEAYTEYFESILDNLHSGADFDVYGHIDYVVRYGPDKNKYYSYERYADIIDAILKEIISQGKGIELNTAGFKYGLGHSNPTEDVLKRYHELGGEIITVGADAHKPEHVAYDFDKVSNILKDAGFMYYTVFENRVPAFIKL”, the “soluble on expression in E. coli” value is “not soluble”.

Regarding “MWDVKDIEQLSFARGLAIDETNDHQYKLTYQNLLPQSEDSQASGKPEFVNVTSHGKTILEAVSDVSIKDPPVYSDHLKVILLGEKLMRNQNVDQVLNHFIRDDELRRSSYLMAARGNAADVFTKGNPNQQQPMPSEKLIDLTTHSGYNGKIMIPLRIGRASVYSQNGYSYLIQAVKNEKGKAKYDGAGIIKRGSNKLVGFLSADETQTLSWVMGTIQGGVMPTTDKGHPITFEIKKSKTKIKPVIENGKPVFHISVKTKGILTEDQNPNENSFSKSYLHRLENIFEKKLERDVKQVMDKLQHEYKTDPVFLSDHIRIQHPDYWNKVKGHWDEIFSETDFKYDISFKIINFGTVGKLEHHHHHH”, the “soluble on expression in E. coli” value was “soluble”.

Take “MWERSLRDTMRGRTSTLKVAILCFEKDRPKLEALKEILGRSYEVEFVDYSKDVWDDVLQYDCIVAYLASGIVVRGICGRLRGKWKDPAVIVLDKPLKHAVVMLGGHHGGNEVAKKLEEAGLKAVITTAMEFTEGYSVGVGFRKNATADEILEAIAMALEEVGGRMEEIRVISTVDAKRDSAIVEVANRLKRPLIFVRAEEINSMDIRETKAVKIGVKNVAEACAIYASNSGELILPKRVYGGVTVAIAW”: the “soluble on expression in E. coli” value is “not soluble”.

Turning to “MWEYLIHGEPTPRLKPFLEGVGKALEAQGFRHNPESEAPNLVLNAITPENPRPYRRRAQATFVASVLELPEFPQDPLRELYPYLVRALSNVLLAYVPGQGVKFLTLELGHYGEPEGKGFYERVAARLRPIACSRLVINNIFEPDLEPELWQGDELTESMYRAGKKLKEWDLLPAPFPIEEILPPEDLRHVKRLYGIGGLSYGNLSVRKDEKRFWMSASGVDKANLREIGRDILMVKDYDPERNAILLSVPPHVEPRRVSVDAIEHWMIYREHPEVGAILHVHAWMEGVPATAFNYPCGTYELAQAVADKVREAPDPARAVVGLKNHGLTITGRSLDEILERIEGKLIRTVPMA”, the “soluble on expression in E. coli” value is “soluble”.

In the case of “MWHIFERFVNEYERWFLVHRFAYLSELQAVKCLLPEGRGVEIGVGTGRFAVPLKIKIGVEPSERMAEIARKRGVFVLKGTAENLPLKDESFDFALMVTTICFVDDPERALKEAYRILKKGGYLIVGIVDRESFLGREYEKNKEKSVFYKNARFFSTEELMDLMRKAGFEEFKVVQTLFKHPSELSEIEPVKEGYGEGAFVVIRGTKK”, the “soluble on expression in E. coli” value is reported as “soluble”.

With “MWINKVIKKRFETDIVQHVHIAKGTAMFQGVRLAVRCFVVDGVLIDTGAKSMENEFTSFFQQQDIDQVVITHFHEDHTGCAAFLQRSMGLPIYMNEPMIEYCRQKADYPLYRKIFWGKRDPFAAKPIGATFSSRNATWDVIPTPGHAIDHVVFLNRETGQLFSGDLYCQEKTKVILREEDIPTIIASLQHVLTYDFGDVFCAHAGYLPNGREALQRKLDYLLELQGTIIDLYEKGTPPKQIQALLFPKKYPIIFFSGGEWDSLHIVRSVIRDYEAKQASLEHHHHHH”, the “soluble on expression in E. coli” value is recorded as “soluble”.

For “MWNETVEHENAGNGWAAGESSFMTDRKPDSKATTLGERLPVPVTISNLIEHFSAQDDKYVVGTFRFATVLTVGIVKDISQDGTTYTYDLCDPNNTEMEYRTLKYDNEGSTFDHSSIVEGTRVRAIGKLKGFDGNNTIMLFNITPVEDDKDFTIFELEAEAARLFFQKNVSEKLKSVDSDGFQGMLAPPKSRMSQTSHQSSQGSDTKERLYAQPQKVMTGANQGDVLRERITAVLMAVPEGSRDEGRHVSWIAEQIQETNISIVRKCVGEMVENGLVYTTVDEETVSAI”, the “soluble on expression in E. coli” value was “not soluble”.
